The values that follow come from paper PMC2994726 (PLoS ONE, 2010).

Experiment in all cases: radioligand binding; whole-cell heterologous competition on transfected COS-7 cells: 1 nM 3H-Ang II tracer and increasing unlabeled SII Ang II, 3 h at 4°C; pKi calculated from Ang II KD values of experiments run in parallel
Conditions in all cases: one partner purified

Test [1] has as its target T1, FLAG-tagged rat AT1a receptor D74N truncated after serine 331 (D74N 331Δ) (rat, UniProt P25095 1-331, D74N).
T1 construct: source: COS-7, transiently transfected, on whole cells; not shown: FLAG, N-terminal, kept
T1 sequence (looked up): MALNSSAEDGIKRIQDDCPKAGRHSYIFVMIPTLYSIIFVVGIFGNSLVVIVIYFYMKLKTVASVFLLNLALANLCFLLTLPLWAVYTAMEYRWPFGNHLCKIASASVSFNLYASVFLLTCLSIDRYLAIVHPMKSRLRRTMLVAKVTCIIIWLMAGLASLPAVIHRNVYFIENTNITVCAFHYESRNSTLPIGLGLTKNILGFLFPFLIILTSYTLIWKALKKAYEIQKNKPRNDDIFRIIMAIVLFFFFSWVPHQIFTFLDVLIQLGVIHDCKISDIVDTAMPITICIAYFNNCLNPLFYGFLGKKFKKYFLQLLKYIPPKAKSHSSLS

The target of test [2] is T2, FLAG-tagged rat AT1a receptor N298A truncated after serine 331 (N298A 331Δ) (rat, UniProt P25095 1-331, N298A).
T2 construct: source: COS-7, transiently transfected, on whole cells; not shown: FLAG, N-terminal, kept
T2 sequence (looked up): T1 sequence (looked up) with N74D, N298A

Test [3] has as its target T3, FLAG-tagged rat AT1a receptor D74N, full length (rat, UniProt P25095 1-359, D74N).
T3 construct: Angiotensin II type 1a receptor (AT1aR), rat, full length; also called D74N (2.50); source: COS-7, transiently transfected, on whole cells; not shown: FLAG, N-terminal, kept
T3 sequence (looked up): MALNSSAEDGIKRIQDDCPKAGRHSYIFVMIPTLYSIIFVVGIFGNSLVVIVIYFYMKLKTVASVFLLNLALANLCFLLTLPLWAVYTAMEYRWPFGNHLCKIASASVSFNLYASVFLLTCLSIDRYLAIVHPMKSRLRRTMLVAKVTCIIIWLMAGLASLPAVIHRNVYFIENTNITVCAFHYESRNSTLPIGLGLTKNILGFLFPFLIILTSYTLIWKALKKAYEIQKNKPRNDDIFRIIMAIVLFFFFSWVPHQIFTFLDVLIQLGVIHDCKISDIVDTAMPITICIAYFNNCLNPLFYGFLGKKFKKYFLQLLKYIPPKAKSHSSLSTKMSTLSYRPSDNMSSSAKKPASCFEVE

Test [4] has as its target T4, FLAG-tagged rat AT1a receptor N298A, full length (rat, UniProt P25095 1-359, N298A).
T4 construct: Angiotensin II type 1a receptor (AT1aR), rat, full length; also called N298A (7.49); source: COS-7, transiently transfected, on whole cells; not shown: FLAG, N-terminal, kept
T4 sequence (looked up): T3 sequence (looked up) with N74D, N298A

Positions count from the first letter of the chain named.

As a reminder, the pKi is the negative decadic logarithm of the Ki, by convention in mol/L. With GRVIIHPI (sarcosine at position 1 (Sar1)) [Sar1-Ile4-Ile8 (SII) Ang II], the negative-log Ki (pKi) was 6.8 in test [1], 6.2 in test [2], 6.6 in test [3] and 6.2 in test [4].
